Laboratory results reported in article PMC12431671, “Receptor transporter protein 4 (RTP4)-mediated repression of hepatitis C virus replication in mouse cells” (PLOS Pathogens, 2025).

Target: T1, HCV NS5A protein (hepatitis C virus J6/JFH1-Jc1, UniProt Q99IB8 1977-2442)
T1 construct: NS5A, cut product of the polyprotein of hepatitis C virus J6/JFH1 (Jc1) chimeric genome; Untagged viral protein, detected with the mouse anti-NS5A antibody 9E10 (a tool); NS5A is a stretch of it; source: made by HCV J6/JFH1-Jc1 infection (MOI of 1) of Huh7-Lunet cells, in fixed cells
T1 sequence: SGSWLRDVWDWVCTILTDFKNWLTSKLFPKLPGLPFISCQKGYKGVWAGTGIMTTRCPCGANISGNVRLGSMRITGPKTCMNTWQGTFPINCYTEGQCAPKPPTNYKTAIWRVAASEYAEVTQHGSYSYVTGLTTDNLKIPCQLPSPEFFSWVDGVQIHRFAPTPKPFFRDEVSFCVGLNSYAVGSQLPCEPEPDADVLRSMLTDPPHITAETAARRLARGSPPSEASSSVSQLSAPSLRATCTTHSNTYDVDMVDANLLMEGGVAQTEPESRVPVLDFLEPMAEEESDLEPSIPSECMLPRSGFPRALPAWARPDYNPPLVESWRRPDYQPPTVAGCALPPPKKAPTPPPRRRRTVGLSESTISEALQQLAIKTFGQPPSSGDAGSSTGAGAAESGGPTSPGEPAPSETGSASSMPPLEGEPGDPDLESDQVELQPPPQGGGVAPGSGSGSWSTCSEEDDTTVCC
Assay: proximity ligation; in situ PLA (Duolink In Situ Detection Reagents Green) in Huh7-Lunet cells infected with HCV J6/JFH1-Jc1 at MOI 1, transduced with FLAG-mmRTP4 or FLAG-hsRTP4 lentivirus, fixed in methanol 48 h post-transduction; Anti-Rabbit MINUS and Anti-Mouse PLUS probes; foci counted in 10 images per sample
Conditions: partners not purified

B1: FLAG-tagged murine receptor transporter protein 4 (FLAG-mmRTP4) (natural protein)
chain: MLFPDDFSTWEQTFQELMQEEKPGAKWSLHLDKNIVPDGAALGWRQHQQTVLGRFQCSRCCRSWTSAQVMILCHMYPDTLKSQGQARMRIFGQKCQKCFGCQFETPKFSTEIIKRILNNLVNYILQRYYGHRKIALTSNASLGEKVTLDGPHDTRNCEACSLNSHGRCALAHKVKPPRSPSPLPKSSSPSKSCPPPPQTRNTDFGNKTFQDFGNRTFQGCREPPQREIEPPLFLFLSIAAFALFSLFTR
notes: Receptor transporter protein 4 (RTP4), mouse; also called mouse RTP4; murine RTP4; source: Huh7-Lunet cells, lentivirally transduced (pLVX), HCV-infected, in fixed cells; not shown: FLAG, N-terminal, kept
frequency of PLA foci relative to FLAG-hsRTP4 with NS5A: 2 fold
